Results taken from patent US20060252116A1, “Icam-4 binding sites” (priority 2002, published 2006).
Positions count from the first letter of the chain named. Names may count otherwise.

B1: F18A mutant: human ICAM-4Fc fusion protein with point mutation F18A (protein)
chain: AQSPKGSPLAPSGTSVPAWVRMSPEFVAVQPGKSVQLNCSNSCPQPQNSSLRTPLRQGKTLRGPGWVSYQLLDVRAWSSLAHCLVTCAGKTRWATSRITAYKPPHSVILEPPVLKGRKYTLRCHVTQVFPVGYLVVTLRHGSRVIYSESLERFTGLDLANVTLTYEFAAGPRDFWQPVICHARLNLDGLVVRNSSAPITLMLAWSPAPTA
modifications: left off: a dimerising Fc or GST
notes: human ICAM-4Fc fusion protein with point mutation F18A
B2: R97E mutant: human ICAM-4Fc fusion protein with point mutation R97E (protein)
chain: B1 chain with A18F, R97E
modifications: left off: a dimerising Fc or GST
notes: human ICAM-4Fc fusion protein with point mutation R97E
B3: N160A mutant: human ICAM-4Fc fusion protein with point mutation N160A (protein)
chain: B1 chain with A18F, N160A
modifications: left off: a dimerising Fc or GST
notes: human ICAM-4Fc fusion protein with point mutation N160A
B4: K118E mutant: human ICAM-4Fc fusion protein with point mutation K118E (protein)
chain: B1 chain with A18F, K118E
modifications: left off: a dimerising Fc or GST
notes: human ICAM-4Fc fusion protein with point mutation K118E
B5: W19A mutant: human ICAM-4Fc fusion protein with point mutation W19A (protein)
chain: B1 chain with A18F, W19A
modifications: left off: a dimerising Fc or GST
notes: human ICAM-4Fc fusion protein with point mutation W19A
B6: T162V mutant: human ICAM-4Fc fusion protein with point mutation T162V (protein)
chain: B1 chain with A18F, T162V
modifications: left off: a dimerising Fc or GST
notes: human ICAM-4Fc fusion protein with point mutation T162V
B7: R92E mutant: human ICAM-4Fc fusion protein with point mutation R92E (protein)
chain: B1 chain with A18F, R92E
modifications: left off: a dimerising Fc or GST
notes: human ICAM-4Fc fusion protein with point mutation R92E
B8: A94L mutant: human ICAM-4Fc fusion protein with point mutation A94L (protein)
chain: B1 chain with A18F, A94L
modifications: left off: a dimerising Fc or GST
notes: human ICAM-4Fc fusion protein with point mutation A94L
B9: V20T mutant: human ICAM-4Fc fusion protein with point mutation V20T (protein)
chain: B1 chain with A18F, V20T
modifications: left off: a dimerising Fc or GST
notes: human ICAM-4Fc fusion protein with point mutation V20T
B10: W66A mutant: human ICAM-4Fc fusion protein with point mutation W66A (protein)
chain: B1 chain with A18F, W66A
modifications: left off: a dimerising Fc or GST
notes: human ICAM-4Fc fusion protein with point mutation W66A
B11: T95V mutant: human ICAM-4Fc fusion protein with point mutation T95V (protein)
chain: B1 chain with A18F, T95V
modifications: left off: a dimerising Fc or GST
notes: human ICAM-4Fc fusion protein with point mutation T95V
B12: S96A mutant: human ICAM-4Fc fusion protein with point mutation S96A (protein)
chain: B1 chain with A18F, S96A
modifications: left off: a dimerising Fc or GST
notes: human ICAM-4Fc fusion protein with point mutation S96A

System: HT1080 cells (αv integrin)
Experiment: Adhesion of HT1080 cells to mutant human ICAM-4Fc
Assay type: cell-based
Details: FIG. 4; single residue mutants of human ICAM-4Fc, titrated coating concentration
Method: Cell adhesion assays were performed as described in Spring et al. 2001 (supra). Immulon4 96 well plates (Dynex Technologies, Billingshurst, United Kingdom) were coated with 1 μg/well goat-antihuman-Fc (Sigma, Poole, United Kingdom) for 24 hours at 4° C., washed three times with PBS and coated with an Fc fusion ICAM-4 protein for 18 hours at 4° C. before blocking with 0.4% BSA PBS for 2 hours at 22° C. Cells were labelled with 10 μg/ml 2′,7′-bis-(2-carboxyethyl)-5-(and-6-) carboxyfluorescein acetoxymethyl ester in assay buffer (IMEM, 2 mM EGTA, 10 μg/ml human ivIgG) for 15 minutes at 37° C. HT1080 cells were activated with 80 μM phorbol myristate acetate prior to both cells being washed with assay buffer containing 2 mM Mn^2+. Cells, at 5×10^4 cells per well, were added to the ICAM-4Fc-coated plates for 30 minutes at 37° C., prior to being given repeated washes in assay buffer and read on a fluorescence microplate reader (excitation 485 nm, emission 530 nm). The percentage of bound cells was calculated after each wash. Peptide inhibition was performed by incubating the cells with 500 μM peptide at 0° C. for 15 minutes ahead of their addition, still in the presence of 500 μM peptide to the ICAM-4Fc coated plates. In peptide inhibition studies the appropriate ICAM-4Fc coating concentration for each cell line was pre-determined by titration of ICAM-4Fc and the lowest concentration at which maximal binding was achieved was used to coat the plates
Point mutations were inserted into ICAM-4 in pIg vector (see Simmons D L, 1993, Cloning cell surface molecules by transient expression in mammalian cells, In: Hartley D A, ed. Cellular interactions in development. New York, N.Y.:IRL press, 93-127) by PCR amplification over two stages. Oligonucleotides (see “Mutagenesis primers” below) containing mismatched bases, together with 5′-[…] (SEQ ID NO: 14) and 3′-[…] (SEQ ID NO: 15) primers were used to generate two overlapping products. Following gel purification the two overlapping PCR products were annealed together before final amplification using the 5′ and 3′ primers. The final PCR product was restricted and ligated into pIg vector. All mutant clones were verified by sequence analysis. Mutant ICAM-4Fc proteins were expressed in COS-7 cells as described in Simmons D L (1993, supra), and purified from culture supernatant on protein A-Sepharose.

Row | Molecule | adhesion of HT1080 cells to mutant ICAM-4Fc compared with wild-type
1 | B1 | decrease in binding
2 | B2 | decrease in binding
3 | B3 | elevated level of adhesion
4 | B4 | decrease the level of adhesion
5 | B5 | decrease in binding
6 | B6 | elevated level of adhesion
7 | B7 | decrease in binding
8 | B8 | decrease in binding
9 | B9 | decrease in binding
10 | B10 | decrease the level of adhesion
11 | B11 | decrease in binding
12 | B12 | decrease in binding
